This test concerns the target HIV-1 envelope glycoprotein gp120 (UniProt P04578). Nature of the test: binding assay (method not named in legend). As to conditions: read off a plot; for other: relative affinity (hCD4-M = 1): parent: est. 0.63.

In the case of “hCD4-M, human CD4 mimetic peptide (residues 22-64), N-terminal Cys form F43A; R58A; R59A”, the ratio to parent (parent: 1) was found to be 0.24.

Turning to “mCD4-M, murine CD4 mimetic peptide (residues 22-66) V44A; K60A; K61A”, the other: relative affinity (hCD4-M = 1) turned out to be 0.14.

Take “mCD4-M, murine CD4 mimetic peptide (residues 22-66) I23C; E65C”: the other: relative affinity (hCD4-M = 1) is 4.

The values above are taken from PMC3270550.
